Experimental data published in article PMC5998137, “Regulation of the β-hemolysin gene cluster of Streptococcus anginosus by CcpA”.

Biological target: CcpA (Streptococcus anginosus, UniProt A0A412PPL7 1-334)
Assay: EMSA; 0.5-8 µg CcpA, 5 pmol probe; no HPr or fructose-1,6-bisphosphate; 500-fold unlabeled creC inhibits the shift
Details: protein: recombinant; tags: N-terminal His6; chain copies: 2; label: 5' IRDye700 on strand 1 (probe); blunt

B1: creC (dsDNA)
DNA 1: GTTTACGCGAAAGCGCTTTTTTTATATA
DNA 2: TATATAAAAAAAGCGCTTTCGCGTAAAC
- binding result: binds
